Results published in paper PMC4022879.

What was measured:
[1] = target: activated coagulation factor XI (FXIa); experiment: chromogenic enzyme inhibition assay; 200 pM FXIa, 500 μM S2366, 37 °C, 110 mM Tris-HCl pH 8.0, 250 mM NaCl, 1% BSA; residual activity in triplicate at at least six inhibitor concentrations; Ki from a linear fit of 1/v against inhibitor concentration
[2] = target: bovine pancreatic trypsin (bovine); experiment: chromogenic enzyme inhibition assay; 1 nM trypsin, 500 μM S2765, 37 °C, 110 mM Tris-HCl pH 8.0, 250 mM NaCl, 1% BSA; residual activity in triplicate at at least six inhibitor concentrations; Ki from a linear fit of 1/v against inhibitor concentration
[3] = target: activated coagulation factor XII (FXIIa); experiment: chromogenic enzyme inhibition assay; 1 nM FXIIa, 500 μM S2302, 37 °C, 110 mM Tris-HCl pH 8.0, 250 mM NaCl, 1% BSA; residual activity in triplicate at at least six inhibitor concentrations; Ki from a linear fit of 1/v against inhibitor concentration

Ki [1] [nM] | Ki [2] [nM] | Ki [3] [nM] | Substance
94000 | 11700 |  | CHFI-2, synthetic cyclic peptide that resembles the CHFI protease-binding loop (from UniProt P01088 48-73)
 |  | 116 | CHFI-123 (from UniProt P01088 29-121) (domain or fragment)
 | 2.2 | 3.2 | CHFI-234 (from UniProt P01088 40-136) (domain or fragment)
 | 1 | 1 | CHFI-1234 (from UniProt P01088 29-108) (domain or fragment)
